This is an account of results in the RNAGym collection of RNA variant scans (doi:10.1073/pnas.2313332121).

The labels stand for the following.
B1: TPR t1 (parent)
chain: GACCAAUCUGCCCUCAGAGCUCGAGAACAUCUUCGGAUGCAGAGGAGGCAGGCUUCGGUGGCGCGAUAGCGCCAACGUCCUCAACCUCCAAUGCAUCCCACCACAUGAUGAUGCCUGAAGAGCCUUGGUUUUUUG

Variants of B1 are the subject of the data set. The experiment in a line: polymerase ribozyme fitness, log enrichment relative to wild type (log ratio); higher = more active; in vitro selection for triplet polymerase activity. The gist of the method: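 A single round of triplicate in vitro selection, including frozen incubation at −7 °C, was applied to PCR-built, transcribed mutant libraries of each subunit of a heterodimeric triplet polymerase ribozyme. Illumina sequencing of input and output libraries retained genotypes with ≥10 input reads and ≥1 read per output. Fitness is the base-2 logarithm of genotype enrichment divided by wild-type enrichment, from inverse-variance-weighted replicate averages.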
Consider C15U C70G C97U, for which the “polymerase ribozyme fitness (log ratio)” value is -3.09. Then C15A G71A, with -2.63. Consider C15G G61U U78C C101A, for which the “polymerase ribozyme fitness (log ratio)” value was -3.49. Regarding C15U A37C C53A, the “polymerase ribozyme fitness (log ratio)” value is -1.72. With C15U C85A C124U G128C U133G, the “polymerase ribozyme fitness (log ratio)” value was -4.88. To C15U G23U G47A C49U C62U G65A A111C belongs -6.66.

Take C15A G25C C34G C64U G113A: the “polymerase ribozyme fitness (log ratio)” value was -7.48. To C15U U21A G63U belongs -2.12; to A16C A90C, -4.52; to C15A U87G A91C U112C G128C G135U, -5.85. Take C15G G36A A100C C124G: the “polymerase ribozyme fitness (log ratio)” value was -3.29. With C15U C53U C97U, the “polymerase ribozyme fitness (log ratio)” value was -1.96. Then C15U C28U C89A C123A, with -5.8; and C15A G57U G61A U112C G113A U132C, with -6.11. To C15A G135U belongs -2.9. Then C15A G42U C85U G120C, with -1.73.

As for C15U U54A A105U U112C, the “polymerase ribozyme fitness (log ratio)” value was -2.79. Then C15U G47C G48U C62G A100U C124U, with -5.24; and C15U C124A, with 0.552. With C15G C82G G117U U130C, the “polymerase ribozyme fitness (log ratio)” value is -0.86. Then C15U C94A, with -2.56; and C15A G39A U87G U112G, with -2.16. On to C15A C101U U112A, for which the “polymerase ribozyme fitness (log ratio)” value is -1.08. Then C15G A27G A95G G110U, with -5.6; and C15U A18U C49G C72A U92C, with -5.58.

Regarding C15A C80U, the “polymerase ribozyme fitness (log ratio)” value was -1.68. On to C15G G45C C53U A91U, for which the “polymerase ribozyme fitness (log ratio)” value was -5.56. Then C15U A43C C76U, with -3.95; and C15A U96A, with -2.85; and C15U C73U C85G, with -1.89.

C15A G39C A41U C101U: the “polymerase ribozyme fitness (log ratio)” value was -3.77. To C15U G39U G42A A84U belongs -4.16; to C15U A41C G45A G71C U112A G117A G127C, -4.04. To C15U G61U A91G A121C U126A belongs -4.05. To C15U G117C belongs -2.96. C15U G117U: the “polymerase ribozyme fitness (log ratio)” value is -3.29. To C15U C76G belongs -1.31. To C15U C34A G60C C76U C82G A105G G113U belongs -6.4; to C15U G60C G117A, 0.583; to C15A U55G G71A C88A, -2.35. Take C15G A41U C56U U96C C124G: the “polymerase ribozyme fitness (log ratio)” value is -2.08. To C15U G39A G60A G117C G120A belongs -4.8. To C15U A74G A105G belongs -4.44.

Turning to C15U C56A C72A C79G, the “polymerase ribozyme fitness (log ratio)” value was -2.96. In the case of C15U A43C G69A, the “polymerase ribozyme fitness (log ratio)” value was -4.44.

For the variant C15U G19U C124G, the “polymerase ribozyme fitness (log ratio)” value is -2.54.

On to C15A G36U G42A C49G G60U, for which the “polymerase ribozyme fitness (log ratio)” value was -6.51. Then C15G U32C G36C C49G G120C, with -3.15; and C15U G58A G61U, with -1.4. Consider C15U A90U, for which the “polymerase ribozyme fitness (log ratio)” value is -2.96. Then C15U G61C C104A C124U, with -3.58. Then C15U G45C G117A, with -1.11; and C15U U21A A100C U109C G117U U130A, with -6.66; and C15G C73A C82G G117U U130C, with -0.6. Regarding C15G A118U C123U, the “polymerase ribozyme fitness (log ratio)” value is -0.83.

Consider C15A C76A, for which the “polymerase ribozyme fitness (log ratio)” value was -2.53.

As for C15U A37U U55G C56U, the “polymerase ribozyme fitness (log ratio)” value was -3.11. In the case of C15A G47U C123U, the “polymerase ribozyme fitness (log ratio)” value was -2.56. Then C15A C62U A84G C94U, with -3.06; and C15G G17A, with -3.99.

In the case of C15U G120C, the “polymerase ribozyme fitness (log ratio)” value was -0.175.

C15U U106A: the “polymerase ribozyme fitness (log ratio)” value is -1.69. For C15U G57A G58A U109G G113A, the “polymerase ribozyme fitness (log ratio)” value was -7.08. To C15A G122A belongs -1.85; to C15A G61A C85U C98G A105G U109A C124U, -6.62.

As to C15A U59A U126A, the “polymerase ribozyme fitness (log ratio)” value is -4.53. On to C15A G52A G60A U112C U116C, for which the “polymerase ribozyme fitness (log ratio)” value is -3.35. Then C15U G77A U87G U125A, with -2.39; and C15U C123G, with 0.228; and C15A U54A C56A, with -2.64. Then A16C C70U, with -3.17; and C15G A95U U116G, with -2.63. To C15A G57U A91G C123A belongs -3.21; to C15G A74U C88A C101U, -4.74; to C15G C70U A84G, -5.53. As to C15G A18U G63C A91C, the “polymerase ribozyme fitness (log ratio)” value is -4.66. To C15G G71A A90G belongs -3.09; to C15A G117A U129C, -2.87. As for C15U U21C G110A U130G, the “polymerase ribozyme fitness (log ratio)” value was -4.32.

Turning to C15G G93C, the “polymerase ribozyme fitness (log ratio)” value is -4.1.

Turning to C15G G93A, the “polymerase ribozyme fitness (log ratio)” value was -3.21. As for C15U A29U, the “polymerase ribozyme fitness (log ratio)” value was -3.13. To C15U A37G C53G U129C belongs -2.67; to C15U A43G G57U C85A G93U G120C, -4.37; to A16C C53A C56A G60A, -4.12. Consider C15A C88G, for which the “polymerase ribozyme fitness (log ratio)” value was -2.59. To C15A C88A belongs -1.56; to C15G A16U G61U G122U C123U, -2.55; to C15A U133G, -3.68.

As to C15A G69C C94U U126A, the “polymerase ribozyme fitness (log ratio)” value was -5.2. To C15G A83G G120C belongs -2.3.

C15G C53G G60A: the “polymerase ribozyme fitness (log ratio)” value is -3.25.

As to C15G C76G C101A, the “polymerase ribozyme fitness (log ratio)” value is -3.53. Then C15A G42A C53A C101U, with -4.53; and C15U G57U C72U C82A A111C A118G, with -1.91; and C15A G47U C73A C115A A121C U133C, with -5.41. Consider C15G C20U C62A G117U, for which the “polymerase ribozyme fitness (log ratio)” value was -3.55. On to C15G C62U A90G U126A, for which the “polymerase ribozyme fitness (log ratio)” value is -3.64. Then C15A C94U C114G U126A, with -5.6. To C15U C56G belongs -2.76.

Turning to C15U C56A, the “polymerase ribozyme fitness (log ratio)” value is -1.78.

Take C15G A74U G117U: the “polymerase ribozyme fitness (log ratio)” value is -0.0169.

Turning to C15A G69U, the “polymerase ribozyme fitness (log ratio)” value was -1.16. To C15G C40A A121G U129C belongs -3.1; to C15A C56A G117U, 0.157.

With C15A U92C G110C C115U G127U, the “polymerase ribozyme fitness (log ratio)” value is -6.

Consider C15G G61A, for which the “polymerase ribozyme fitness (log ratio)” value was -1.86. Consider C15A U132A, for which the “polymerase ribozyme fitness (log ratio)” value is -2.04.

On to C15A U132C, for which the “polymerase ribozyme fitness (log ratio)” value was -1.46. Then C15U G128C, with -3.18; and C15U C34A C123U, with -3.01. Regarding C15A C64U G110C, the “polymerase ribozyme fitness (log ratio)” value was -6.12.

For C15G C20U, the “polymerase ribozyme fitness (log ratio)” value was -2.98. For C15U G52A, the “polymerase ribozyme fitness (log ratio)” value was -1.6. Take C15G U78G: the “polymerase ribozyme fitness (log ratio)” value was -2.92.

As to C15U C20A C72U C86U, the “polymerase ribozyme fitness (log ratio)” value was -3.76. C15A G57C: the “polymerase ribozyme fitness (log ratio)” value was -1.91. For the variant C15A G57U, the “polymerase ribozyme fitness (log ratio)” value is -2.02.

For C15A G71C C97G G117U, the “polymerase ribozyme fitness (log ratio)” value was -5.07. As to C15A G69A C104U, the “polymerase ribozyme fitness (log ratio)” value is -4.06. To C15A G113A belongs -3.63; to C15G C56U, -2.17; to C15G C104U U132A, -1.67. To C15G U109A G120U C123A belongs -6.64; to C15A G42A C56A G69U A100C U132A, -4.53. For C15U C114U, the “polymerase ribozyme fitness (log ratio)” value was -2.91. Then C15U A46G A84U U112A G113U G120U, with -4.78; and C15U A43U C72G C88U A91C G120C, with -1.58; and C15U C72A, with -1.07. As for C15G G69U C102A, the “polymerase ribozyme fitness (log ratio)” value was -1.71. C15G G63U U96A C99U G117U: the “polymerase ribozyme fitness (log ratio)” value was -5.62. On to C15G G17U C86A, for which the “polymerase ribozyme fitness (log ratio)” value is -5.4. To C15A G48C G52C belongs -4.44; to C15U A46U U54G C123A, -1.74; to C15U C76A U87A C101G, -4. To C15U A41U G69C C82A U112A C124A belongs -3.69; to C15U C72A C85G C102A, -3.1; to C15G G19A C73U U112A G122U, -3.84. C15G A66U: the “polymerase ribozyme fitness (log ratio)” value was -4.55.

Turning to C15U C62A, the “polymerase ribozyme fitness (log ratio)” value was -2.1. Then C15U C62U, with -1.95; and C15G C53G C56G G61A, with -3.41; and C15A C64U, with -2.36.

As for C15U A111U A118C, the “polymerase ribozyme fitness (log ratio)” value was -5.19. Then A16C C56G A121C, with -1.27; and C15A G36U G61A, with -3.38.

For C15G U32C C49U U87G, the “polymerase ribozyme fitness (log ratio)” value is -3.89. To C15G G52A belongs -2.6; to C15U G60U C123U, -0.514. In the case of C15U U32C, the “polymerase ribozyme fitness (log ratio)” value is -1.42. Turning to C15G C22U, the “polymerase ribozyme fitness (log ratio)” value is -5.53.

C15U C72U U78A C85G C98A C104G C123U G128C: the “polymerase ribozyme fitness (log ratio)” value is -6.7.

Consider C15A G63A G127C, for which the “polymerase ribozyme fitness (log ratio)” value was -4.4.

Take C15U G36U C64A A121G: the “polymerase ribozyme fitness (log ratio)” value was -5.18. Then C15A G69U C88U U125C, with -3.27. Then A16C C73U C115G, with -3.06; and A16C C64U U78C U87A G113U U116A, with -7.76. Then C15A U129A, with -3.18; and C15U G135U, with -2.12. As for C15G C20A G69U U81A C124A, the “polymerase ribozyme fitness (log ratio)” value is -1.08. Take C15G A26C U54G G71U C114U: the “polymerase ribozyme fitness (log ratio)” value was -5.95. To C15A C82U C89A U96A C104U belongs -3.39; to C15A G17A C73G U112A, -4.93. Then C15A C94U G120C, with -0.704. Then C15G U78G C115U U126A, with -2.34; and C15G, with -2.16.

Consider C15U, for which the “polymerase ribozyme fitness (log ratio)” value is -1.37.
